According to patent US12522842B2, “Glutamine synthetase mutant having glufosinate resistance and application thereof and cultivation method therefor” (GEVOTO LLC, priority 2019, dated 2026):
Numbering of substitutions follows the chain as printed. In names and notes the source's numbering stands.

B1: OR: rice GS mutant, H296R versus SEQ ID NO. 1 (SEQ ID NO. 32) (protein)
chain: MASLTDLVNLNLSDTTEKIIAEYIWIGGSGMDLRSKARTLSGPVTDPSKLPKWNYDGSSTGQAPGEDSEVILYPQAIFKDPFRKGNNILVMCDCYTPAGEPIPTNKRHNAAKIFSSPEVASEEPWYGIEQEYTLLQKDINWPLGWPVGGFPGPQGPYYCGIGADKSFGRDIVDSHYKACLYAGINISGINGEVMPGQWEFQVGPSVGISAGDQVWVARYILERITEIAGVVVSFDPKPIPGDWNGAGAHTNYSTKSMRNDGGYEIIKSAIEKLKLRHKEHISAYGEGNERRLTGRRETADINTFSWGVANRGASVRVGRETEQNGKGYFEDRRPASNMDPYIVTSMIAETTIIWKP
modifications: OR
B2: OsGS_WT: wild-type rice glutamine synthetase, SEQ ID NO. 1, negative control (protein, listed as Oryza sativa)
chain: B1 chain with R296H
B3: TaGS_WT: wild-type wheat glutamine synthetase, SEQ ID NO. 2, control (protein, listed as Triticum aestivum)
chain: MALLTDLLNLDLTDSTEKIIAEYIWIGGSGMDLRSKARTLPGPVTDPSKLPKWNYDGSSTGQAPGEDSEVILYPQAIFKDPFRKGNNILVMCDCYTPAGVPIPTNKRYNAAKIFSNPDVAKEEPWYGIEQEYTLLQKDINWPLGWPVGGFPGPQGPYYCSIGADKSFGRDIVDSHYKACLFAGVNISGINGEVMPGQWEFQVGPTVGISAGDQVWVARYLLERITEIAGVVVTFDPKPIPGDWNGAGAHTNYSTESMRKDGGFKVIVDAVEKLKLKHKEHIAAYGEGNERRLTGKHETADINTFSWGVANRGASVRVGRETEQNGKGYFEDRRPASNMDPYVVTSMIAETTILWKP
B4: OsH: rice GS mutant, S59H versus SEQ ID NO. 1 (SEQ ID NO. 13) (protein)
chain: B1 chain with S59H, R296H
modifications: OsH
B5: OsY: rice GS mutant, S59Y versus SEQ ID NO. 1 (SEQ ID NO. 19) (protein)
chain: B1 chain with S59Y, R296H
modifications: OsY
B6: OsGR: rice GS mutant, S59G and H296R in SEQ ID NO. 1 (SEQ ID NO. 22) (protein)
chain: B1 chain with S59G
modifications: OsGR

Tests used:
[1] = tested on: glutamine synthetase-deficient Escherichia coli; assay: Growth of glutamine synthetase-deficient E. coli transformed with GS mutants in M9 medium containing glufosinate; assay type: cell-based; conditions: for growth of transformed GS-deficient E. coli (normal GS enzymatic activity): medium containing 0 mM glufosinate
Excerpt: According to the sequences of the nucleic acid molecules provided in Example 4, the nucleic acid sequences encoding rice GS mutants OsA, OsC, OsD, OsE, OsF, OsG, OsH, OsI, OsK, OsP, OST, OsV, and OsY were synthesized using chemical synthesis method. Restriction digestion sites (Pac1 and Sbf1) were introduced at both ends thereof, and after restriction digestion, they were linked under the action of ligase to an expression vector (such as pADV7 vector, whose structure is shown in FIG. 4) that was subjected to the same restriction digestion treatment. Then, glutamine synthetase-deficient Escherichia coli was transformed with the resultant. After verification, positive clones were picked up and inoculated in M9 medium containing different concentrations of glufosinate to grow, and the growth status of defective Escherichia coli was observed.
With wild-type rice GS (its amino acid sequence shown in SEQ ID NO. 1 and its encoding gene shown in SEQ ID NO. 4) as a negative control, the glufosinate resistance for the GS mutant OsA (S59A, wherein the amino acid S at site 59 of the rice GS is mutated into A), OsC (S59C), OsD (S59D), OsE (S59E), OsF (S59F), OsG (S59G), OsH (S59H), OsI (S591), OsK (S59K), OsP (S59P), OsT (S59T), OsV (S59V), OsY (S59Y) was detected.
With reference to the detection method of Experimental Example 1, glufosinate resistance of the rice GS mutant OsGR (S59G and H296R, the amino acid S at site 59 of rice GS is mutated into G and the amino acid H at site 296 is mutated into R), the wheat GS mutant TaGR (S59G and H296R, the amino acid S at site 59 of wheat GS is mutated into G and the amino acid H at site 296 is mutated into R), the soybean GS mutant GmGR (S59G and H296R, the amino acid S at site 59 of soybean GS is mutated into G and the amino acid H at site 296 is mutated into R) provided in Example 2 was verified.
With reference to Experimental example 1, the glufosinate resistance of rice GS mutants OA, OD, OE, OG, OI, OK, OM, OP, OQ, OR, OS, OT, and OV provided in Example 3 was detected according to the following method.
With wild-type rice GS as a negative control, the glufosinate resistance of GS mutants OA (H296A, amino acid H at site 296 of rice GS is mutated into A), OD (H296D), OE (H296E), OG (H296G), OI (H2961), OK (H296K), OM (H296M), OP (H296P), OQ (H296Q), OR (H296R), OS (H296S), OT (H296T), OV (H296V) was detected.

[2] = target: rice GS (glutamine synthetase); assay: Enzymatic activity of purified rice GS: kinetic parameters and glufosinate IC50; assay type: biochemical, rice (Oryza sativa); conditions: inhibition of rice GS by glufosinate
Excerpt: (§1) OsC, OsF, OsG, OsH, OsP, and OsY provided in Example 1, OR provided in Example 3, and rice GS mutant OsGR and wheat GS mutant TaGR provided in Example 2 were detected for their enzymatic kinetic parameter, and enzymatic kinetic parameter in the presence of glufosinate, using wild-type rice GS OsGS_WT and wild-type wheat GS TaGS_WT as controls according to the following method.
(§2) The nucleic acid sequences encoding the above mutants were each cloned into a prokaryotic expression vector pET32a, and the clone was verified by sequencing.
(§3) The mutant enzyme protein was purified with 6His by a standard method, and its concentration was determined with a protein concentration assay kit with Bradford method. The protein was stored in a protein storage solution.
(§4) ELIASA (Detielab, HBS-1096A), glufosinate, substrate sodium L-glutamate (CAS: 6106-04-3).
(§5) (1) The composition of a reaction solution for determination of enzymatic activity of glutamine synthetase were as follows: 100 mM Tris-HCl (pH 7.5), 10 mM ATP, 20 mM sodium L-glutamate, 30 mM hydroxylamine, 20 mM MgCl2. 100 μl of the reaction solution after mixed thoroughly was preheated at 35° C. for 5 min, and 10 μl of mutant protein solution (protein concentration of 200 μg/ml) was added to start the reaction. After reaction at 35° C. for 30 min, 110 μl of color developing solution (55 g/L FeCl3·6H2O, 20 g/L trichloroacetic acid, 2.1% concentrated hydrochloric acid) was added to terminate the reaction. The absorbance at 540 nm was measured.

[3] = tested on: rice (Nipponbare); assay: Glufosinate resistance of transgenic rice after spraying 1x field dose; assay type: in vivo; conditions: 1x glufosinate, 450 g/ha, day 7 after spraying
Excerpt: The glufosinate resistance resulting from the OR mutants provided in Example 3 in transgenic rice was detected according to the following method.
The nucleic acid sequence encoding OR was inserted into the pGVP1 vector (see FIG. 11) according to a conventional method to obtain the pGVP1-OR vector.
The pGVP1-OR vector was transformed into competent cells of EHA105 (Agrobacterium tumefaciens), the monoclonal was picked up for colony PCR detection, and positive strains were obtained; then the positive strains were inoculated into 1 mL YEP medium containing 50 μg·mL^−1 kanamycin and 50 μg·mL^−1 rifampicin for propagation, and stored at −80° C. or used in subsequent experiments. […]
Rice plants transformed with OR mutant gene were detected using the PCR method, forward and reverse detection primers were designed according to pGVP1-OR vector sequence and rice reference gene, the PCR amplification products were assayed by 1.5% agarose gel electrophoresis, and those with bands at 452 bp and 629 bp were transgenic plants.
The transplanted transgenic rice seedlings were evenly arranged in the same experimental area (to avoid overlapping leaves). The area of occupied regions of the experimental group and the control group was calculated. […]

[4] = target: wheat GS (glutamine synthetase); assay: Enzymatic activity of purified wheat GS: kinetic parameters and glufosinate IC50; assay type: biochemical, wheat (Triticum aestivum); conditions: inhibition of wheat GS by glufosinate; read-out: glufosinate resistance parameter IC50
Excerpt: as §1, §2, §3, §4
as §5, with “After reaction at 35° C. for 30 min, 110 μl of color developing solution (55 g/L FeCl3·6H2O, 20 g/L trichloroacetic acid, 2.1% concentrated hydrochloric acid) was added to terminate the reaction.” left out

[5] = medium containing 10 mM glufosinate
[6] = media containing 10 mM, 20 mM and 300 mM glufosinate
[7] = medium with 50 mM/100 mM glufosinate

Molecule	growth of transformed GS-deficient E. coli (normal GS enzymatic activity) [1]	growth of transformed E. coli (glufosinate resistance) [1, 5]	glufosinate resistance parameter IC50 [2]	growth of transformed E. coli (glufosinate resistance) [1, 6]	growth of transformed E. coli (glufosinate resistance) [1, 7]	further results
B1	could normally grow	significantly superior to that of the wild type	much higher than those of the wild-type controls			growth of transformed E. coli (glufosinate resistance) ([1]; medium containing 20 mM glufosinate): significantly grew; growth of transformed E. coli (glufosinate resistance) ([1]; medium containing 50 mM glufosinate): still significantly grew; performance of transgenic rice seedlings after spraying glufosinate [3]: not significantly affected by glufosinate and continued to grow
B2	could normally grow	could hardly grow		could hardly grow		IC50 ([2]; read-out: glufosinate resistance parameter IC50): 700 µM
B3	could normally grow					growth of transformed E. coli (glufosinate resistance) ([1]; media containing 2 mM, 5 mM, 10 mM, and 20 mM glufosinate): could hardly grow; IC50 [4]: 600 µM
B4	could normally grow	significantly superior to that of the negative control	much higher than those of the wild-type controls		significantly grew	
B5	could normally grow	significantly superior to that of the negative control	much higher than those of the wild-type controls		significantly grew	
B6	could normally grow		much higher than those of the wild-type controls	grew significantly		growth of transformed E. coli (glufosinate resistance) ([1]; medium containing 300 mM glufosinate): grew significantly
